Tested on: newly diagnosed CD30-positive mature T- and NK-cell neoplasms, including sALCL
Experiment: Phase 1 study SGN35-011: brentuximab vedotin with CHOP or CHP chemotherapy
Type: in vivo, human
Details: given concomitantly with CHP
Excerpt: The clinical safety and activity of brentuximab vedotin administered sequentially and concurrently with multiagent chemotherapy were previously evaluated in a phase 1 study in patients with newly diagnosed CD30-positive mature T- and NK-cell neoplasms, including sALCL (Study SGN35-011). This phase 1 study was implemented to determine the safety and activity of sequential and combination frontline treatment approaches of brentuximab vedotin with CHOP or CHP chemotherapy. The maximum tolerated dose of brentuximab vedotin was 1.8 mg/kg given concomitantly with CHP. At an interim analysis in this study (data presented at the T-Cell Lymphoma Forum 2012), 20 patients in this study had been treated with brentuximab vedotin 1.2 or 1.8 mg/kg given concomitantly with CHP for 6 cycles, followed by continued brentuximab vedotin every 3 weeks for up to 10 additional cycles for responding patients.

Question: brentuximab vedotin was tested. Which maximum tolerated dose did it give?
Answer: 1.8 mg/kg
